Results from US20200040086A1 (BERLIN CHEMIE, published 2020).

Assays:
Experiment in all cases: peptide microarray of 8mer LY75 peptides, LY75_A1 at 1 µg/mL, anti-human IgG Alexa 647
YKSDQALH = biological target: T1, YKSDQALH
T1 construct: 8mer of LY75 on the peptide microarray, chart Region 10
T1 peptide: YKSDQALH
Description: (§1) The peptide microarray analysis was performed by LC Sciences, Houston Tex., in brief the method comprised the following steps:—Contiguous 8mer peptides of LY75 protein having […] spanning residues 216 to 1666 of the full length LY75 protein were synthesized and immobilized on a microarray chip. The chip comprised three panels such that the experiment was performed in triplicate. The microarray was addressed with LY75_A1 to identify the peptides to which the antibody bound. The binding assay was performed under the following conditions:—
(§2) The microarray comprising the contiguous peptides in triplicate was washed with 1 mL of binding buffer at 4° C. for 20 min. It was then incubated with 1 μg/mL LY75_A1 in binding buffer (pH 7.0) at 4° C. for 2 hrs. The array was again washed with 0.5 mL of washing buffer at 4° C. for 30 min then incubated with 25 ng/mL anti-human IgG Alexa 647 conjugate in binding buffer (pH 7.0) at 4° C. for 1 hr. The array was again washed with 0.5 mL of washing buffer at 4° C. for 30 min.

EVKDCRSF = biological target: T2, EVKDCRSF
T2 construct: 8mer of LY75 on the peptide microarray, chart Region 1
T2 peptide: EVKDCRSF
Description: as §1, §2

RRGWHFYD = biological target: T3, RRGWHFYD
T3 construct: 8mer of LY75 on the peptide microarray, chart Region 3
T3 peptide: RRGWHFYD
Description: as §1, §2

EFIYLRPF = biological target: T4, EFIYLRPF
T4 construct: 8mer of LY75 on the peptide microarray, chart Region 3
T4 peptide: EFIYLRPF
Description: as §1, §2

PIDDHFTY = biological target: T5, PIDDHFTY
T5 construct: 8mer of LY75 on the peptide microarray, chart Region 4
T5 peptide: PIDDHFTY
Description: as §1, §2

DHFTYSRY = biological target: T6, DHFTYSRY
T6 construct: 8mer of LY75 on the peptide microarray, chart Region 4
T6 peptide: DHFTYSRY
Description: as §1, §2

YSRYPWHR = biological target: T7, YSRYPWHR
T7 construct: 8mer of LY75 on the peptide microarray, chart Region 4
T7 peptide: YSRYPWHR
Description: as §1, §2

SRYPWHRF = biological target: T8, SRYPWHRF
T8 construct: 8mer of LY75 on the peptide microarray, chart Region 4
T8 peptide: SRYPWHRF
Description: as §1, §2

WHRFPVTF = biological target: T9, WHRFPVTF
T9 construct: 8mer of LY75 on the peptide microarray, chart Region 4
T9 peptide: WHRFPVTF
Description: as §1, §2

HRFPVTFG = biological target: T10, HRFPVTFG
T10 construct: 8mer of LY75 on the peptide microarray, chart Region 4
T10 peptide: HRFPVTFG
Description: as §1, §2

RELTYSNF = biological target: T11, RELTYSNF
T11 construct: 8mer of LY75 on the peptide microarray, chart Region 5
T11 peptide: RELTYSNF
Description: as §1, §2

YSNFHPLL = biological target: T12, YSNFHPLL
T12 construct: 8mer of LY75 on the peptide microarray, chart Region 5
T12 peptide: YSNFHPLL
Description: as §1, §2

FVSLCQKY = biological target: T13, FVSLCQKY
T13 construct: 8mer of LY75 on the peptide microarray, chart Region 6
T13 peptide: FVSLCQKY
Description: as §1, §2

VSLCQKYS = biological target: T14, VSLCQKYS
T14 construct: 8mer of LY75 on the peptide microarray, chart Region 6
T14 peptide: VSLCQKYS
Description: as §1, §2

VKYLNNLY = biological target: T15, VKYLNNLY
T15 construct: 8mer of LY75 on the peptide microarray, chart Region 7
T15 peptide: VKYLNNLY
Description: as §1, §2

YLNNLYKI = biological target: T16, YLNNLYKI
T16 construct: 8mer of LY75 on the peptide microarray, chart Region 7
T16 peptide: YLNNLYKI
Description: as §1, §2

EAVYFHQH = biological target: T17, EAVYFHQH
T17 construct: 8mer of LY75 on the peptide microarray, chart Region 8
T17 peptide: EAVYFHQH
Description: as §1, §2

YFHQHSIL = biological target: T18, YFHQHSIL
T18 construct: 8mer of LY75 on the peptide microarray, chart Region 8
T18 peptide: YFHQHSIL
Description: as §1, §2

LSRLTYSS = biological target: T19, LSRLTYSS
T19 construct: 8mer of LY75 on the peptide microarray, chart Region 9
T19 peptide: LSRLTYSS
Description: as §1, §2

NGSRWIQY = biological target: T20, NGSRWIQY
T20 construct: 8mer of LY75 on the peptide microarray, chart Region 10
T20 peptide: NGSRWIQY
Description: as §1, §2

SRWIQYKG = biological target: T21, SRWIQYKG
T21 construct: 8mer of LY75 on the peptide microarray, chart Region 10
T21 peptide: SRWIQYKG
Description: as §1, §2

QYKGHCYK = biological target: T22, QYKGHCYK
T22 construct: 8mer of LY75 on the peptide microarray, chart Region 10
T22 peptide: QYKGHCYK
Description: as §1, §2

YKGHCYKS = biological target: T23, YKGHCYKS
T23 construct: 8mer of LY75 on the peptide microarray, chart Region 10
T23 peptide: YKGHCYKS
Description: as §1, §2

KGHCYKSD = biological target: T24, KGHCYKSD
T24 construct: 8mer of LY75 on the peptide microarray, chart Region 10
T24 peptide: KGHCYKSD
Description: as §1, §2

Measured: binding result

B1: LY75_A1 (antibody, V domains shown)
VH: EVQLVESGGGLVKPGGSLRLSCAASGFTYSNAWMSWVRQAPGKGLEWVGRIKSKTDGGTTDYAAPVQGRFTISRDDSKNTLYLQMNSLKTEDTAVYYCTIFGVVSFDYWGQGTLVTVSS
VL: DVQMTQSPSSLSASVGDRVTITCRASQSISDYLSWYQQRPGKAPNLLIYAASNLKTGVPSRFSGSGSGTDFTLTISTLQPEDFATYYCQQSYRSPWTFGQGTKVEIKR
notes: detected with anti-human IgG in the microarray; also called antibody LY75_A1; LY75_A1 monoclonal antibody
binds: all assays above
